Experimental data reported in the supplement of paper PMC10126150.
± gives the standard deviation of the averaged measurements.

Tested on: ATP
Assay: switch fluorescence ratio, 500 uM ATP over buffer (Cy3 cluster intensity, sum of 5 cycles each) (fold (ratio)); higher = stronger signal-on switching upon ATP binding; sequences stand for … in TCGTCGGCAGCGTCAGATGTGTATAAGAGACAGTTTTTTTTTTTTTTTTTTTTTTTTT…TC
Conditions: aptamer strand: ATP DNA aptamer (quencher-CACCTGGGGGAGTATTGCGGAGGAAGG + anchor), 100 nM annealed; ATP concentration: 500 uM
How it was run: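 Clusters carrying Cy3-labelled switching strands on a modified Illumina MiSeq flow-cell were annealed to 100 nM quencher-labelled ATP aptamer and imaged in selection buffer. They were imaged again after 15 min with 500 uM ATP at 22 °C, over five buffer/ATP cycles with NaOH stripping and re-annealing in between. For each cluster, the fluorescence ratio is the summed Cy3 intensity of the target cycles divided by that of the buffer cycles, averaged per switch-domain sequence. Clusters outside 100-1000 RFU were left out.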
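Further: ATP exposure 15 min at 22 °C before imaging.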

Sequence	switch fluorescence ratio
GTATTGTCAG	0.9663 ± 0.00064
GTATTGTTTT	1.14 ± 0.16
GTATTTCGGC	0.994 ± 0.027
GTATTTGGGA	0.991 ± 0.054
GTATTTTATT	1.006 ± 0.0064
GTATTTTGGG	0.996 ± 0.014
GTATTTTTGG	0.972 ± 0.03
GTCAAAGATT	0.98 ± 0.014
GTCAATAAGG	0.99 ± 0.016
GTCAATTGGG	0.992 ± 0.044
GTCACTAAAG	1.02 ± 0.043
GTCAGAATGT	1.02 ± 0.017
GTCAGAGGCA	0.991 ± 0.011
GTCAGGCCGG	1.09 ± 0.15
GTCAGGTCTT	0.975 ± 0.021
GTCAGTCTGA	0.9805 ± 0.003
GTCATAGTGT	0.955 ± 0.037
GTCATCGAGT	1.008 ± 0.0039
GTCATCGGCC	0.996 ± 0.035
GTCATTCCGC	1.65 ± 0.065
GTCATTGCGG	0.994 ± 0.015
GTCCAAGGGT	1.01 ± 0.035
GTCCATTGGG	1 ± 0.021
GTCCATTTTG	1.01 ± 0.064
GTCCCGGTTT	1.02 ± 0.095

Sequence	switch fluorescence ratio
GTCCGAAAGA	1.18 ± 0.095
GTCCGGATGG	1.02 ± 0.011
GTCCGGGGTT	0.994 ± 0.021
GTCCGGGTGG	1.05 ± 0.1
GTCGAAGGAA	1 ± 0.011
GTCGACAGGT	0.987 ± 0.031
GTCGCCGACC	0.996 ± 0.038
GTCGCGGTTG	1.03 ± 0.0015
GTCGGAAGGG	1.01 ± 0.032
GTCGGGGGAT	1.02 ± 0.014
GTCGGGGTAC	0.997 ± 0.034
GTCGGTAAGG	0.982 ± 0.021
GTCGGTACTT	0.996 ± 0.012
GTCGGTATTC	0.9947 ± 0.0081
GTCGTAAAAA	1.61 ± 0.0016
GTCGTACGTT	1.06 ± 0.025
GTCGTTAGGA	1.01 ± 0.0038
GTCGTTCGCA	1.15 ± 0.11
GTCGTTGGTT	0.985 ± 0.033
GTCGTTTGGG	0.991 ± 0.027
GTCTTATGGC	0.997 ± 0.011
GTCTTATTTA	0.976 ± 0.014
GTCTTGACGA	0.996 ± 0.019
GTGAAAAGGG	0.963 ± 0.038
GTGAAAGGGA	1.03 ± 0.017

Sequence	switch fluorescence ratio
GTGAAAGTGG	0.979 ± 0.028
GTGAAGACGT	1.002 ± 0.0077
GTGAAGAGGG	0.9977 ± 0.0056
GTGAAGTATG	1.016 ± 0.00074
GTGAATAGAG	1 ± 0.027
GTGACAGGTG	1.47 ± 0.053
GTGACCTGGG	1.03 ± 0.026
GTGACGGGGT	1.01 ± 0.022
GTGACTTTCT	0.99 ± 0.017
GTGAGATGTT	1 ± 0.016
GTGAGCCGGT	0.983 ± 0.013
GTGAGGGAGT	1.008 ± 0.006
GTGAGGTGTG	1.001 ± 0.009
GTGAGTAGGG	0.989 ± 0.018
GTGAGTGGCA	0.986 ± 0.029
GTGATAAGAG	0.999 ± 0.013
GTGATAAGCG	1.03 ± 0.04
GTGATACCCG	1.02 ± 0.058
GTGATACTGG	1.04 ± 0.014
GTGATAGTTA	0.967 ± 0.043
GTGATCTGAT	1.01 ± 0.029
GTGATCTTAT	0.9965 ± 0.0031
GTGATCTTTT	1 ± 0.049
GTGATGGCAG	0.9846 ± 0.0053
GTGATGGGGG	1.01 ± 0.051

Sequence	switch fluorescence ratio
GTGATGTTAG	1.01 ± 0.011
GTGATTGCTA	0.9878 ± 0.0061
GTGATTGCTG	0.9883 ± 0.0052
GTGATTTGGT	0.995 ± 0.019
GTGATTTTGG	0.9882 ± 0.0042
GTGATTTTGT	1.01 ± 0.032
GTGCAATGTA	1.1 ± 0.015
GTGCCAAGGG	1.16 ± 0.21
GTGCCCCAAG	1 ± 0.015
GTGCCCGGAT	0.9846 ± 0.0065
GTGCCCTGAC	1.29 ± 0.041
GTGCCGGGGC	1.08 ± 0.11
GTGCCTTTGC	1.11 ± 0.067
GTGCGATGTA	1.02 ± 0.031
GTGCGCAGAT	0.982 ± 0.022
GTGCGCATTG	1.03 ± 0.046
GTGCTATTAT	0.993 ± 0.024
GTGCTTAATG	0.975 ± 0.011
GTGGAAAAGG	0.966 ± 0.046
GTGGAAAGCG	0.981 ± 0.059
GTGGAAGGGG	0.988 ± 0.03
GTGGAAGTCG	0.966 ± 0.017
GTGGAATGGG	0.983 ± 0.055
GTGGACGGGG	0.983 ± 0.033
GTGGACGTTT	1.02 ± 0.057
